The series deals with T1, ETS1 x2 (Homo sapiens, UniProt P14921).
T1 sequence: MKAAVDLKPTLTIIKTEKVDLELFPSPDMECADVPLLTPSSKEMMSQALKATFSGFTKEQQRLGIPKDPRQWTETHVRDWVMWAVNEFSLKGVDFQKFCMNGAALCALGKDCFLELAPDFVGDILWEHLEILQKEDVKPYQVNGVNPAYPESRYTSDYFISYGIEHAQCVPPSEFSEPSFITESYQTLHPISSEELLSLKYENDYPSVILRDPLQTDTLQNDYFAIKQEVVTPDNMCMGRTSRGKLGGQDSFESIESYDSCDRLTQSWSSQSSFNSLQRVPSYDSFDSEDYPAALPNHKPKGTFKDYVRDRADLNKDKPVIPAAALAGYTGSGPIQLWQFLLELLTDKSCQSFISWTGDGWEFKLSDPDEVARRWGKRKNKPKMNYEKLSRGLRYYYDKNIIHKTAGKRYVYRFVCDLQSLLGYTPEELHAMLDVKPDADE
Briefly: gcPBM; 10 nM ETS1. As to conditions: tags: N-terminal GST (pDEST15), kept (PMC6008103); chain copies: 2; label: surface-attached array probe.

B1: Table S4 A row 2246 (dsDNA)
DNA 1: AAAGCACGACCTTCCGGGACCGGAAGTGCCGGTCGA
DNA 2: TCGACCGGCACTTCCGGTCCCGGAAGGTCGTGCTTT
On to B1, for which the binding signal is 28900 PBM fluorescence, median of replicate spots.

B2: Table S4 A row 2168 (dsDNA)
DNA 1: CCGGCCTTCCACTTCCGGCGCGGAAGTTGGCGTCAC
DNA 2: GTGACGCCAACTTCCGCGCCGGAAGTGGAAGGCCGG
Take B2: the binding signal is 44800 PBM fluorescence, median of replicate spots.

B3: Table S4 A row 1450 (dsDNA)
DNA 1: CTCCCACTTCCTTCCTGTGCGGGGAAGAAAACTGCC
DNA 2: GGCAGTTTTCTTCCCCGCACAGGAAGGAAGTGGGAG
Regarding B3, the binding signal is 25000 PBM fluorescence, median of replicate spots.

B4: Table S4 A row 2202 (dsDNA)
DNA 1: AGGGCGATTTCCGCTTTGTCGCGTTTCCTCAAGGCT
DNA 2: AGCCTTGAGGAAACGCGACAAAGCGGAAATCGCCCT
As to B4, the binding signal is 37800 PBM fluorescence, median of replicate spots.

B5: Table S4 A row 305 (dsDNA)
DNA 1: GCCGCTTCCTGTTCAGAGGACAGACAGCTTCCTGAC
DNA 2: GTCAGGAAGCTGTCTGTCCTCTGAACAGGAAGCGGC
On to B5, for which the binding signal was 61600 PBM fluorescence, median of replicate spots.

B6: Table S4 A row 2457 (dsDNA)
DNA 1: TGCAGCTAACTACTTCCGCTTCCGCTTGCGTCCCCT
DNA 2: AGGGGACGCAAGCGGAAGCGGAAGTAGTTAGCTGCA
Take B6: the binding signal is 24300 PBM fluorescence, median of replicate spots.

B7: Table S4 A row 1254 (dsDNA)
DNA 1: TGAAAATGAGCATTTCCTGTTTCCTCAGGCATTTCT
DNA 2: AGAAATGCCTGAGGAAACAGGAAATGCTCATTTTCA
As for B7, the binding signal was 31500 PBM fluorescence, median of replicate spots.

B8: Table S4 A row 2224 (dsDNA)
DNA 1: GCACTTCCGCCAGAAGCCGGGTGTGTCCTTCCGGGC
DNA 2: GCCCGGAAGGACACACCCGGCTTCTGGCGGAAGTGC
For the molecule B8, the binding signal was 49200 PBM fluorescence, median of replicate spots.

B9: Table S4 A row 1679 (dsDNA)
DNA 1: AGTGTTCACTTCCTGCCCTCCCATTTCCTGAAGGTC
DNA 2: GACCTTCAGGAAATGGGAGGGCAGGAAGTGAACACT
As to B9, the binding signal was 35600 PBM fluorescence, median of replicate spots.

B10: Table S4 A row 809 (dsDNA)
DNA 1: GCTTGGGTGTTTCCTGTGCTGCTTCCTCTCCAACCT
DNA 2: AGGTTGGAGAGGAAGCAGCACAGGAAACACCCAAGC
Take B10: the binding signal was 23300 PBM fluorescence, median of replicate spots.

B11: Table S4 A row 2476 (dsDNA)
DNA 1: TGTGCCGTAGCATTTCCGGCGGAAGTTGCTGGGCGC
DNA 2: GCGCCCAGCAACTTCCGCCGGAAATGCTACGGCACA
In the case of B11, the binding signal was 26900 PBM fluorescence, median of replicate spots.

B12: Table S4 A row 1194 (dsDNA)
DNA 1: TCGGAACAGTGACTTCCGGCGGAAGAAGAAGCCGGT
DNA 2: ACCGGCTTCTTCTTCCGCCGGAAGTCACTGTTCCGA
In the case of B12, the binding signal is 32500 PBM fluorescence, median of replicate spots.

B13: Table S4 A row 743 (dsDNA)
DNA 1: CCCCACTTCCTGTTGACACAATAGGCAGGATATTAA
DNA 2: TTAATATCCTGCCTATTGTGTCAACAGGAAGTGGGG
Take B13: the binding signal was 67800 PBM fluorescence, median of replicate spots.

B14: Table S4 A row 2460 (dsDNA)
DNA 1: GGCTGGAAGGCACTTCCGGCGGAAGTTAGAGCTGGG
DNA 2: CCCAGCTCTAACTTCCGCCGGAAGTGCCTTCCAGCC
For B14, the binding signal was 42900 PBM fluorescence, median of replicate spots.

B15: Table S4 A row 2195 (dsDNA)
DNA 1: TGAAGAAGCACCGGAAATGCTTCCGATCGCTTCATA
DNA 2: TATGAAGCGATCGGAAGCATTTCCGGTGCTTCTTCA
With B15, the binding signal was 40400 PBM fluorescence, median of replicate spots.

(Values after PMC10681739, “High-throughput data and modeling reveal insights into the mechanisms of cooperative DNA-binding by transcription factor proteins”.)
